{"source": "the DeepSol protein solubility set", "data": [{"test": "soluble on expression in E. coli; label from the status in PepcDB or PDB records", "values": [{"sequence": "MIQPRIRQNPFETYEEVAEGFEDLLAPLELFFDREYQGHLDLGTHGTVYSKGTRDAEAFLRPLWGLGPYVTQNESEYLNDFLTGIIEGTDPESSSYWGKTKDYDQLIVEMAALSTFLLLNKEKTWDQLTKEQQNNLHSWLIQANENIIPPNNWHFFRVLLNLAMKHCEMPYSKEQIAVDLAVIDRFYVGNGWYYDGVETQVDYYVSFAIHYYSLLYCRFAPEDTARVAIMKERATLFAQEFKYWFTQPGEAIPFGRSLTYRFAQVSFFSALVFADVEALPWGEIKGLISRHLHQWMNKDIFTTDGLLSVGYDYQNMVFAEGYNGPGSPYWAFKTFILLAVPKDHPYWQAETQPISFPEKHLPSPESRNYYQVNDAGTHGLMFPAGQFINYQAHAHDKYSKFVYSSHFGFSTIKSDYWYYEGAYDNCLALAEDDHYFRTKGLDDQYEILDDRIIHQWHPWSDVAIKTTIVPLEGQHLRIHEIETQRALVAYEGGFSIPLFDEKVTCVSDQMAEVKNAKGVSKVENINGFSEAAIIRTEPNTNLLYPLTELPYLKANLSKGKHLLISLVTGVLPNEQIEPVKVRLKENQLLVEEKVVILGN", "soluble on expression in E. coli": "soluble"}, {"sequence": "EDDEDYGDLGGCPFLVAENKTGYPTIVACKQDCNGTTETAPNGTRCFSIGDEGLRRMTANLPYDCPLGQCSNGDCIPKETYEVCYRRNWRDKKNHHHHHH", "soluble on expression in E. coli": "soluble"}, {"sequence": "MPRLYLGKIPYNARERDVERFLKGYGKINNISMKYGFAFVDFEDSRDAEDACHDLDGKTMEGSSMRLVVEMARGKPRGNDRHGSRSPRRRSRSPRRRSRTPPRRRSRSRDRKRSRRSRSRSSSRSRSPVRESRRRSESRSPSPKRDLKREASRSRSPLPAKDRSRTRSGSPPKNGGDRKRSVSRGRSHSRDGSNRSVSRSPSPGSPKD", "soluble on expression in E. coli": "not soluble"}, {"sequence": "VGVKPVGSDPDFQPELSGAGSRLAVVKFTMRGCGPCLRIAPAFSSMSNKYPQAVFLEVDVHQCQGTAATNNISATPTFQFFRNKVRIDQYQGADAVGLEEKIKQHLE", "soluble on expression in E. coli": "soluble"}, {"sequence": "HIKVGFSPEKLQPYTQLPSDFNEFWNKTKAEAARFPLTYTKEYVEKYSTDKIDCYLIRLQLNKQSQCIYGYLFYPKAEGKYPVVLCPPGAGIKTIKGPMRHKYYAEEGCIRFEIEIHGLNPELDEDTFGEISRAFSSRENGYLVNGLDSRENYYMKRVYLACVRSIDLLTSLPEWDGKNVIVQGGSQGGALALITAGLDKRVTACVANHPALSDMAGYKAGRAGGYPHLFKNTVDMDTPAKMKTLAYYDVVNFAKQITVPVYMTWGFNDNTCPPTTSYIVYNVLNCPKEALITPVNEHWTSEDTEYGHLLWIKKHLK", "soluble on expression in E. coli": "not soluble"}, {"sequence": "MANHVSLILPPLSLYIHIPWCVQKCPYCDFNSHTQKGTIPEAEYIQHLLADLSQDLVTYKTAIANRKIHSIFIGGGTPSLFSAEAIAYLLAEIKQRIAFAPKIEITLEANPGTAEAERFICYTEAGINRISMGIQSFEEEKLRKLGRIHDAHEAKQAVYFAKNALISPSRTVGLHSFNLDLMHGLPNQTLEQALADLNTAISLNPPHFSWYQLTIEPNTMFYYRQPTLPDDDELWAIFEQGHQLLTMAGYQQYETSAYAKQGFQCQHNLNYWRFGDYLAIGCGAHGKISYPSGEIYRFSKTKHPKGYMRGDYRDSQQSIQLDDRPFEFFMNRFRLLEPTPKQEFECYTGLDCERVRPTIDWALNKHYISETSTTWQVTQKGKLFLNELLAGFLTLEHHHHHH", "soluble on expression in E. coli": "not soluble"}, {"sequence": "MTTMNPFLVQSTLPYLAPHFDQIANHHYRPAFDEGMQQKRAEIAAIALNPQMPDFNNTILALEQSGELLTRVTSVFFAMTAAHTNDELQRLDEQFSAELAELANDIYLNGELFARVDAVWQRRESLGLDSESIRLVEVIHQRFVLAGAKLAQADKAKLKVLNTEAATLTSQFNQRLLAANKSGGLVVNDIAQLAGMSEQEIALAAEAAREKGLDNKWLIPLLNTTQQPALAEMRDRATREKLFIAGWTRAEKNDANDTRAIIQRLVEIRAQQATLLGFPHYAAWKIADQMAKTPEAALNFMREIVPAARQRASDELASIQAVIDKQQGGFSAQPWDWAFYAEQVRREKFDLDEAQLKPYFELNTVLNEGVFWTANQLFGIKFVERFDIPVYHPDVRVWEIFDHNGVGLALFYGDFFARDSKSGGAWMGNFVEQSTLNKTHPVIYNVCNYQKPAAGEPALLLWDDVITLFHEFGHTLHGLFARQRYATLSGTNTPRDFVEFPSQINEHWATHPQVFARYARHYQSGAAMPDELQQKMRNASLFNKGYEMSELLSAALLDMRWHCLEENEAMQDVDDFELRALVAENMDLPAIPPRYRSSYFAHIFGGGYAAGYYAYLWTQMLADDGYQWFVEQGGLTRENGLRFREAILSRGNSEDLERLYRQWRGKAPKIMPMLQHRGLNI", "soluble on expression in E. coli": "soluble"}]}]}
